Assay results as given in paper PMC6274866.

Tests used:
[1] = target: STIM2-2β-OASF (residues 238–504 containing the naturally occurring VAASYLIQ insertion after E383) (human); test: SEC-MALS; 1 mg/mL protein injected on Superdex 200 Increase 10/300 GL at 10 °C; 20 mM TRIS, 300 mM NaCl, 1 mM DTT, pH 8.0; without CaCl2; stoichiometric ratio = MALS molecular weight / theoretical monomer mass
[2] = target: STIM2-2β-OASF (residues 238–504 containing the naturally occurring VAASYLIQ insertion after E383) (human); test: SEC-MALS; 1 mg/mL protein injected on Superdex 200 Increase 10/300 GL at 10 °C; 20 mM TRIS, 300 mM NaCl, 1 mM DTT, pH 8.0; with 25 mM CaCl2; stoichiometric ratio = MALS molecular weight / theoretical monomer mass

STIM2-2β-OASF (residues 238–504 containing the naturally occurring VAASYLIQ insertion after E383) (domain or fragment), sequence (Q9P246 238-504): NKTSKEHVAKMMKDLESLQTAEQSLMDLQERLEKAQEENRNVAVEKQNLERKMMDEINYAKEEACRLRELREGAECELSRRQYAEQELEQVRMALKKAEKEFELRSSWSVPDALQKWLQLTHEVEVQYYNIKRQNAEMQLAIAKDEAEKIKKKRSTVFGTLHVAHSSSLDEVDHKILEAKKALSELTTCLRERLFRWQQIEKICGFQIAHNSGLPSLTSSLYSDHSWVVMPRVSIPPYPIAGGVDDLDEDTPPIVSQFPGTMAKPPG

STIM2-2β-OASF (residues 238–504 containing the naturally occurring VAASYLIQ insertion after E383) (domain or fragment)
stoichiometry N [1]: 1.96 | stoichiometry N [2]: 1.97
